Laboratory results reported in patent US20250368745A1 (published 2025).

B1: SA304a (antibody, human IgG1, V domains shown)
VH: QVQLQESGPGLVKPSQTLSLTCTVSGYSITSDYNAHWIRQPPGKGLEWIGYIHYSGSTNYNPSLKSRVTISRDTSKNQFSLKLSSVTAADTAVYYCARNYASIYVNYFDYWGQGTLVTVSS
VL: EIVLTQSPATLSLSPGERATLSCSASSSVSYMYWYQQKPGQAPRPLIYRTSNLASGIPARFSGSGSGTDFTLTISSLEPEDFAVYYCQQYHSYPTFGGGTKVEIK
B2: SA305a (antibody, human IgG1, V domains shown)
VH: QVQLQESGPGLVKPSQTLSLTCTVSGYSITSDYNAHWIRQPPGKGLEWIGYIHYSGSTNYNPSLKSRVTISRDTSKNQFSLKLSSVTAADTAVYYCARNFASIYVNYFDYWGQGTLVTVSS
VL: EIVLTQSPATLSLSPGERATLSCSASSSVSYMYWYQQKPGQAPRPLIYRTSNLASGIPARFSGSGSGTDFTLTISSLEPEDFAVYYCQQYHSYPTFGGGTKVEIK
B3: SA306a (antibody, human IgG1, V domains shown)
VH: QVQLQESGPGLVKPSQTLSLTCTVSGYSITSDYNNHWIRQPPGKGLEWIGYIHYSGSTNYNPSLKSRVTISRDTSKNQFSLKLSSVTAADTAVYYCARNYGSIYVNYFDYWGQGTLVTVSS
VL: EIVLTQSPATLSLSPGERATLSCSASSSVSYMYWYQQKPGQAPRPLIYRTSNLASGIPARFSGSGSGTDFTLTISSLEPEDFAVYYCQQYHSYPTFGGGTKVEIK
B4: SA308a (antibody, human IgG1, V domains shown)
VH: QVQLQESGPGLVKPSQTLSLTCTVSGYSITSDYNAHWIRQPPGKGLEWIGYIHYSGATNYNPSLKSRVTISRDTSKNQFSLKLSSVTAADTAVYYCARNYGSIYVNYFDYWGQGTLVTVSS
VL: EIVLTQSPATLSLSPGERATLSCSASSSVSYMYWYQQKPGQAPRPLIYRTSNLASGIPARFSGSGSGTDFTLTISSLEPEDFAVYYCQQYHSYPTFGGGTKVEIK
B5: SA301a HC-V100aF (antibody, name in Kabat numbering, V domains shown)
VH: QVQLQESGPGLVKPSQTLSLTCTVSGYSITSDYNSHWIRQPPGKGLEWIGYIHYSGSTNYNPSLKSRVTISRDTSKNQFSLKLSSVTAADTAVYYCARNYGSIYFNYFDYWGQGTLVTVSS
VL: EIVLTQSPATLSLSPGERATLSCSASSSVSYMYWYQQKPGQAPRPLIYRTSNLASGIPARFSGSGSGTDFTLTISSLEPEDFAVYYCQQYHSYPTFGGGTKVEIK
notes: IgG1 kappa
B6: SA301a HC-V100aD (antibody, name in Kabat numbering, V domains shown)
VH: QVQLQESGPGLVKPSQTLSLTCTVSGYSITSDYNSHWIRQPPGKGLEWIGYIHYSGSTNYNPSLKSRVTISRDTSKNQFSLKLSSVTAADTAVYYCARNYGSIYDNYFDYWGQGTLVTVSS
VL: EIVLTQSPATLSLSPGERATLSCSASSSVSYMYWYQQKPGQAPRPLIYRTSNLASGIPARFSGSGSGTDFTLTISSLEPEDFAVYYCQQYHSYPTFGGGTKVEIK
notes: IgG1 kappa
B7: SA301a HC-N100bM (antibody, name in Kabat numbering, V domains shown)
VH: QVQLQESGPGLVKPSQTLSLTCTVSGYSITSDYNSHWIRQPPGKGLEWIGYIHYSGSTNYNPSLKSRVTISRDTSKNQFSLKLSSVTAADTAVYYCARNYGSIYVMYFDYWGQGTLVTVSS
VL: EIVLTQSPATLSLSPGERATLSCSASSSVSYMYWYQQKPGQAPRPLIYRTSNLASGIPARFSGSGSGTDFTLTISSLEPEDFAVYYCQQYHSYPTFGGGTKVEIK
notes: IgG1 kappa
B8: SA301a HC-V100aA (antibody, name in Kabat numbering, V domains shown)
VH: QVQLQESGPGLVKPSQTLSLTCTVSGYSITSDYNSHWIRQPPGKGLEWIGYIHYSGSTNYNPSLKSRVTISRDTSKNQFSLKLSSVTAADTAVYYCARNYGSIYANYFDYWGQGTLVTVSS
VL: EIVLTQSPATLSLSPGERATLSCSASSSVSYMYWYQQKPGQAPRPLIYRTSNLASGIPARFSGSGSGTDFTLTISSLEPEDFAVYYCQQYHSYPTFGGGTKVEIK
notes: IgG1 kappa
B9: SA301a HC-I99A (antibody, name in Kabat numbering, V domains shown)
VH: QVQLQESGPGLVKPSQTLSLTCTVSGYSITSDYNSHWIRQPPGKGLEWIGYIHYSGSTNYNPSLKSRVTISRDTSKNQFSLKLSSVTAADTAVYYCARNYGSAYVNYFDYWGQGTLVTVSS
VL: EIVLTQSPATLSLSPGERATLSCSASSSVSYMYWYQQKPGQAPRPLIYRTSNLASGIPARFSGSGSGTDFTLTISSLEPEDFAVYYCQQYHSYPTFGGGTKVEIK
notes: IgG1 kappa
B10: SA301a HC-N100bQ (antibody, name in Kabat numbering, V domains shown)
VH: QVQLQESGPGLVKPSQTLSLTCTVSGYSITSDYNSHWIRQPPGKGLEWIGYIHYSGSTNYNPSLKSRVTISRDTSKNQFSLKLSSVTAADTAVYYCARNYGSIYVQYFDYWGQGTLVTVSS
VL: EIVLTQSPATLSLSPGERATLSCSASSSVSYMYWYQQKPGQAPRPLIYRTSNLASGIPARFSGSGSGTDFTLTISSLEPEDFAVYYCQQYHSYPTFGGGTKVEIK
notes: IgG1 kappa
B11: SA301a HC-I99P (antibody, name in Kabat numbering, V domains shown)
VH: QVQLQESGPGLVKPSQTLSLTCTVSGYSITSDYNSHWIRQPPGKGLEWIGYIHYSGSTNYNPSLKSRVTISRDTSKNQFSLKLSSVTAADTAVYYCARNYGSPYVNYFDYWGQGTLVTVSS
VL: EIVLTQSPATLSLSPGERATLSCSASSSVSYMYWYQQKPGQAPRPLIYRTSNLASGIPARFSGSGSGTDFTLTISSLEPEDFAVYYCQQYHSYPTFGGGTKVEIK
notes: IgG1 kappa
B12: SA301a HC-I99D (antibody, name in Kabat numbering, V domains shown)
VH: QVQLQESGPGLVKPSQTLSLTCTVSGYSITSDYNSHWIRQPPGKGLEWIGYIHYSGSTNYNPSLKSRVTISRDTSKNQFSLKLSSVTAADTAVYYCARNYGSDYVNYFDYWGQGTLVTVSS
VL: EIVLTQSPATLSLSPGERATLSCSASSSVSYMYWYQQKPGQAPRPLIYRTSNLASGIPARFSGSGSGTDFTLTISSLEPEDFAVYYCQQYHSYPTFGGGTKVEIK
notes: IgG1 kappa
B13: SA301a HC-N100bE (antibody, name in Kabat numbering, V domains shown)
VH: QVQLQESGPGLVKPSQTLSLTCTVSGYSITSDYNSHWIRQPPGKGLEWIGYIHYSGSTNYNPSLKSRVTISRDTSKNQFSLKLSSVTAADTAVYYCARNYGSIYVEYFDYWGQGTLVTVSS
VL: EIVLTQSPATLSLSPGERATLSCSASSSVSYMYWYQQKPGQAPRPLIYRTSNLASGIPARFSGSGSGTDFTLTISSLEPEDFAVYYCQQYHSYPTFGGGTKVEIK
notes: IgG1 kappa
B14: SA301a HC-N100bP (antibody, name in Kabat numbering, V domains shown)
VH: QVQLQESGPGLVKPSQTLSLTCTVSGYSITSDYNSHWIRQPPGKGLEWIGYIHYSGSTNYNPSLKSRVTISRDTSKNQFSLKLSSVTAADTAVYYCARNYGSIYVPYFDYWGQGTLVTVSS
VL: EIVLTQSPATLSLSPGERATLSCSASSSVSYMYWYQQKPGQAPRPLIYRTSNLASGIPARFSGSGSGTDFTLTISSLEPEDFAVYYCQQYHSYPTFGGGTKVEIK
notes: IgG1 kappa
B15: SA301a HC-N100bR (antibody, name in Kabat numbering, V domains shown)
VH: QVQLQESGPGLVKPSQTLSLTCTVSGYSITSDYNSHWIRQPPGKGLEWIGYIHYSGSTNYNPSLKSRVTISRDTSKNQFSLKLSSVTAADTAVYYCARNYGSIYVRYFDYWGQGTLVTVSS
VL: EIVLTQSPATLSLSPGERATLSCSASSSVSYMYWYQQKPGQAPRPLIYRTSNLASGIPARFSGSGSGTDFTLTISSLEPEDFAVYYCQQYHSYPTFGGGTKVEIK
notes: IgG1 kappa
B16: SA301a HC-I99Y (antibody, name in Kabat numbering, V domains shown)
VH: QVQLQESGPGLVKPSQTLSLTCTVSGYSITSDYNSHWIRQPPGKGLEWIGYIHYSGSTNYNPSLKSRVTISRDTSKNQFSLKLSSVTAADTAVYYCARNYGSYYVNYFDYWGQGTLVTVSS
VL: EIVLTQSPATLSLSPGERATLSCSASSSVSYMYWYQQKPGQAPRPLIYRTSNLASGIPARFSGSGSGTDFTLTISSLEPEDFAVYYCQQYHSYPTFGGGTKVEIK
notes: IgG1 kappa
B17: SA301a HC-N100bY (antibody, name in Kabat numbering, V domains shown)
VH: QVQLQESGPGLVKPSQTLSLTCTVSGYSITSDYNSHWIRQPPGKGLEWIGYIHYSGSTNYNPSLKSRVTISRDTSKNQFSLKLSSVTAADTAVYYCARNYGSIYVYYFDYWGQGTLVTVSS
VL: EIVLTQSPATLSLSPGERATLSCSASSSVSYMYWYQQKPGQAPRPLIYRTSNLASGIPARFSGSGSGTDFTLTISSLEPEDFAVYYCQQYHSYPTFGGGTKVEIK
notes: IgG1 kappa
B18: SA301a HC-I99E (antibody, name in Kabat numbering, V domains shown)
VH: QVQLQESGPGLVKPSQTLSLTCTVSGYSITSDYNSHWIRQPPGKGLEWIGYIHYSGSTNYNPSLKSRVTISRDTSKNQFSLKLSSVTAADTAVYYCARNYGSEYVNYFDYWGQGTLVTVSS
VL: EIVLTQSPATLSLSPGERATLSCSASSSVSYMYWYQQKPGQAPRPLIYRTSNLASGIPARFSGSGSGTDFTLTISSLEPEDFAVYYCQQYHSYPTFGGGTKVEIK
notes: IgG1 kappa
B19: SA301a HC-I99L (antibody, name in Kabat numbering, V domains shown)
VH: QVQLQESGPGLVKPSQTLSLTCTVSGYSITSDYNSHWIRQPPGKGLEWIGYIHYSGSTNYNPSLKSRVTISRDTSKNQFSLKLSSVTAADTAVYYCARNYGSLYVNYFDYWGQGTLVTVSS
VL: EIVLTQSPATLSLSPGERATLSCSASSSVSYMYWYQQKPGQAPRPLIYRTSNLASGIPARFSGSGSGTDFTLTISSLEPEDFAVYYCQQYHSYPTFGGGTKVEIK
notes: IgG1 kappa

Experiments:
[1] = molecular target: T1, human IL-18BP (interleukin-18 binding protein, isoform A) (human, UniProt O95998 31-194); assay: cell-based or functional assay
T1 sequence: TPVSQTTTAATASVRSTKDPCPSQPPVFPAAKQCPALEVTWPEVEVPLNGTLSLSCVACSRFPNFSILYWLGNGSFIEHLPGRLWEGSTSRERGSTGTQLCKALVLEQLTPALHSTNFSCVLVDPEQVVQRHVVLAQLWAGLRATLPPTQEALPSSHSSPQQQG

cynomolgus IL-18BP = molecular target: T2, cynomolgus IL-18BP (cynomolgus monkey); assay: BLI, apparent KD
T2 construct: also called cyno IL-18BP; cyIL-18BP
T2 chain: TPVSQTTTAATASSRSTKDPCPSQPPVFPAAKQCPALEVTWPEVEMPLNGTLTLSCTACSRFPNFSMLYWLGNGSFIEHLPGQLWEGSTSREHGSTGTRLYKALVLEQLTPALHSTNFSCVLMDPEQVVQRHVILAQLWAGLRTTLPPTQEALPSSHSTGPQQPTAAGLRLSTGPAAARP

human IL-18BP = molecular target: T3, human IL-18BP (human, UniProt O95998 31-194); assay: BLI, apparent KD
T3 construct: UniProt printed as 095998; also called hIL-18BP
T3 sequence: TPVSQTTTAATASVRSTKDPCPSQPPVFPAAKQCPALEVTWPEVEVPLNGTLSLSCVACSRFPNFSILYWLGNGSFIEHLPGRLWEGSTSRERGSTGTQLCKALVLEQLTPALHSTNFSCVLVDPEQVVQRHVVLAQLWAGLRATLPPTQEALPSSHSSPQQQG

Row | Binder | EC50 in PBMC Assay 1 (endogenous IL-18BP), IFNγ [1] [nM] | EC50 in PBMC Assay 2 (precomplexed IL-18BP), IFNγ [1] [nM] | Kd (cynomolgus IL-18BP) [nM] | Kd (human IL-18BP) [nM]
1 | B1 | 3.1 | 3 | – | –
2 | B2 | 4.4 | 0.79 | – | –
3 | B3 | 127 | 19.7 | – | –
4 | B4 | 7.9 | 2.2 | – | –
5 | B5 | – | – | 0.44 | –
6 | B6 | – | – | 0.36 | 4.99
7 | B7 | – | – | 1.83 | –
8 | B8 | – | – | 0.15 | 0.47
9 | B9 | – | – | 0.61 | 0.51
10 | B10 | – | – | 0.42 | –
11 | B11 | – | – | 0.51 | 0.41
12 | B12 | – | – | 1.07 | 1.01
13 | B13 | – | – | 0.91 | 0.31
14 | B14 | – | – | 0.11 | –
15 | B15 | – | – | – | 0.25
16 | B16 | – | – | 0.45 | 0.48
17 | B17 | – | – | 0.47 | –
18 | B18 | – | – | 3.98 | 1.95
19 | B19 | – | – | 0.89 | 0.49
